Experimental findings from US20090047211A1 are described below.

The term Kd denotes the constant that tells how readily two partners part at equilibrium.

Assay [1] concerns the target mesothelin-Fc fusion protein (extracellular domain of human mesothelin fused with rabbit IgG Fc) (rabbit; human) (UniProt Q13421). Description: ELISA on plates coated with mesothelin-Fc, HRP-labeled anti-mouse IgG. For orientation: In an ELISA, binding on a coated surface is turned into a signal by an enzyme label.
Assay [2] concerns the target mesothelin (native, on mesothelin-expressing human cells and in mesothelioma tissue) (human) (UniProt Q13421). Description: flow cytometry on H226 cells, MAb 1 µg/ml, PE-labeled anti-mouse IgG. The note with it: scale: log geometric mean of fluorescence intensity.
Assay [3] addresses mesothelin-Fc fusion protein (extracellular domain of human mesothelin fused with rabbit IgG Fc) (rabbit; human) (UniProt Q13421). In words: Biacore, affinity to mesothelin-Fc in solution. Background: In SPR one partner is held on a chip, and binding of the other changes the refractive index at the surface.
Assay [4] has the same target. In words: Western blot on SDS-denatured mesothelin-Fc, MAb 1 µg/ml. On the technique in general: A western blot detects proteins with antibodies after separation by electrophoresis.
The target is the same in assay [5]. In words: Western blot on SDS-denatured mesothelin-Fc.
The target is the same in assay [6]. Description: ELISA on mesothelin-Fc (summary of Table 1).
For assay [7] the target is unchanged. In words: Western blot on mesothelin-Fc (summary of Table 1).

MAb K1 (antibody) registered an amount of MAb that showed OD450 = 0.5 in ELISA in assay [1] of 1000 ng/mL. Further, the FACS reactivity to H226 cells (log geometric mean of fluorescence intensity) in assay [2] came out at 2.5. In assay [3], this molecule came in with a Kd of 12 nM. This molecule registered a minimum amount of mesothelin-Fc detected in Western blot in assay [4] of 25 ng.

B1: MAb MN (antibody, IgG2a, V domains shown)
VH: QVQLQQPGAELVKPGASMKLSCKASGYTFTSYWMHWVKQRPGQGLEWIGMIHPNSDNTIYYEKFKSKATLTVDKSSSTAYMQLSSLTSEDSAVYYCAIIITPVVPKFDYWGQGTTLTVSS
VL: DIVMTQSHQFMSTSVGDRVSVTCKASHDVGTSVAWYQQKPGQSPKLLIYWASTRHTGVPDRFTGSGSGTDFTLTISNVQSEDLADYFCQQYSSYPLTFGAGTKLELKR
Consider B1, for which the amount of MAb that showed OD450 = 0.5 in ELISA in assay [1] worked out at 1.1 ng/mL. This molecule displayed a fold sensitivity in Western blot against MAbs K1 and 5B2 in assay [5] of 10 fold. Further, the FACS reactivity to H226 cells (log geometric mean of fluorescence intensity) in assay [2] was found to be 3.5. In assay [6], the fold reactivity in ELISA against the K1 and 5B2 antibodies was 500 fold. Also, in assay [7], the fold sensitivity in Western blot against the K1 and 5B2 antibodies came to 12 fold. Moreover, the dissociation constant (Kd) in assay [3] is 1 nM. The minimum amount of mesothelin-Fc detected in Western blot in assay [4] came to 2 ng.

B2: MAb MB (antibody, IgG2a, V domains shown)
VH: EVKLVESGGGLVQPGGSLSLSCAASGFTFTDYYMSWVRQPPGRALEWLGFIRGKANGYTTEYSASVKGRFTISRDYSQSILYLHMNALRAEDSATYSCARYYYSNYVWYFDVWGTGTTVTVSS
VL: DIVMTQSQKFMSTSVGDRVSVTCKASQNVGTNVAWYQQKPGLSPKVLIHSASYRFSGVPDRFTGSGSGTDFTLSISNVQSEDLAKYFCQQYNSYPLTFGAGTKLELKR
In turn, B2 came in with an amount of MAb that showed OD450 = 0.5 in ELISA in assay [1] of 1.9 ng/mL. This molecule also had a fold sensitivity in Western blot against MAbs K1 and 5B2 in assay [5] of 10 fold. Also, in assay [2], the FACS reactivity to H226 cells (log geometric mean of fluorescence intensity) is 3.3. Besides, the fold reactivity in ELISA against the K1 and 5B2 antibodies in assay [6] came to 500 fold. In assay [7], this molecule displayed a fold sensitivity in Western blot against the K1 and 5B2 antibodies of 12 fold. In addition, in assay [3], the Kd was 0.6 nM. This molecule also returned a minimum amount of mesothelin-Fc detected in Western blot in assay [4] of 2 ng.
